This sample holds only a part of the variants without activity.
B1: TPR 5TU (parent)
chain: GGAUCUUCUCGAUCUAACAAAAAAGACAAAUCUGCCACAAAGCUUGAGAGCAUCUUCGGAUGCAGAGGCGGCAGCCUUCGGUGGCGCGAUAGCGCCAACGUUCUCAACUAUGACACGCAAAACGCGUGCUCCGUUGAAUGGAGUUUAUCAUG

Variants of: B1
Assay: polymerase ribozyme fitness, log enrichment relative to wild type (log ratio); higher = more active; in vitro selection for triplet polymerase activity
Outline: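 Genotype fitness is the logarithm of its enrichment divided by wild-type enrichment, using inverse-variance-weighted averages of replicates. That logarithm is base 2. Enrichment was measured by Illumina sequencing of input and output libraries from one triplicate in vitro selection round, with frozen incubation at −7 °C, on PCR-built, transcribed mutant libraries of each subunit of a heterodimeric triplet polymerase ribozyme, retaining genotypes with ≥10 input reads and ≥1 read per output.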

Variant | polymerase ribozyme fitness (log ratio)
A16G U31G A49U | ≤ -4.2
A16G A22U A47C C95A C96U | -3.89
A16G A17G C57U A64C A91U C95U C118G G124A G126A G133C | ≤ -4.2
A16C U44G A47G C51A A60C U77A | ≤ -4.2
A16G A20C U78A C87U | ≤ -4.2
A16C U55A A142G A150G | -3.06
A16G U33G G81A C87G G100A | ≤ -4.2
U15G A39U U82G G84A G112U | ≤ -4.2
A16G U148C | -2.77
U15G G48U C54U C123A G136U | -2.93
A16U A52U G74A C87A A119U U148G | ≤ -4.2
A16U A19G U31A C38U G42C U44G G59U C96G | ≤ -4.2
A16U A17C G50A U56A C87U G88A G117U | ≤ -4.2
A16G C43G C57U G84A C85A A91C U127C | ≤ -4.2
A16G A20U U33G C85A G94A A150C | ≤ -4.2
A16G A22U G94A | -0.896
A16G C116A | 0.283
U15G A89C A119U | -0.888
A16C G42U U56C G81U C85G | ≤ -4.2
A16U A22G C57A U135A | -3.06
A16C G42U G58C G84U G100A U102G A137U U144C | ≤ -4.2

Variant | polymerase ribozyme fitness (log ratio)
A16G A37U A60U G71C G84A C116A G124C U146G | ≤ -4.2
A16U A30C U61A C96U G140U | ≤ -4.2
U15G G92U A147U | 0.901
A16G C32G A41U G80C C99U A110U U127A G143A | ≤ -4.2
A16C A20U A28U C35A G50U G59C G84A C87G C96U C103A U148A | ≤ -4.2
A16C A37U G58A G80U C85G C93G A150G | ≤ -4.2
U15G G42A C75A G83U A122U G128A | ≤ -4.2
A16G U144G | 0.162
A16U A47C | -2.04
U15G A49C G65C A120C A142C | ≤ -4.2
A16C A49U C85A G126U U139G | -3.47
A16G A39C | -2.62
U15G A26U C38G G42A U44A C95G C99U | ≤ -4.2
A16G A49U C63U C72U G88C G141C | ≤ -4.2
U15G U77A U78G G88U C149G | ≤ -4.2
A16C G84A C105G C114U C125A U144A U151G | ≤ -4.2
U15G C35G G50C C96G G143U | ≤ -4.2
A16C G25U C36U G59C C93U U104G G140C | ≤ -4.2
A16G C57A G86C G124U | -3.24
A16G A41G U53G A73U G88A C125U G133U | ≤ -4.2
A16G C27A C35G C43A U56G G58C C93U G117C A119C A121U G136A | ≤ -4.2

Variant | polymerase ribozyme fitness (log ratio)
U15G A47C C57U C96A C108G | ≤ -4.2
U15G C85U | -0.0947
A16G A17G C18A G58C A60G C95A U144C A150C | ≤ -4.2
A16C A20C G84U A97U U130C | -4.17
U15G A40G C96U A97G G141A | -3.18
U15G A52C C96U U101G C129A | ≤ -4.2
U15G C69A C96U | -1.09
A16C G88A C116G | -4.19
A16C G25U U61G G88U C93U G136A A147C U148C | ≤ -4.2
A16U A29C C35U A41C G86A A98U C114U G141U U145G | ≤ -4.2
A16C C32U C72G C75A G86C C87G C99U A107U A120U G124U | ≤ -4.2
A16C A40U C93A A122G G141C | ≤ -4.2
A16G U31A A39U C132U G136A | -3.4
A16G A39U C43G G50U G67C U109A U134A U139C | ≤ -4.2
A16U A22C C27A C125A A150G | ≤ -4.2
A16C A40C G83A A97G | -0.914
A16C G59A C85G G126U | -2.76
A16U A52G A64U U77A C87A G143C | ≤ -4.2
A16U A22U G117A C132A U151G | ≤ -4.2
A16G C32U C72A C76U C85G A107U | ≤ -4.2
U15G C99U A142U | -1.77

Variant | polymerase ribozyme fitness (log ratio)
A16U A106G | -1.8
A16C G59C | -0.987
U15G C18U U56C G83A C87U | -1.58
A16U A17U A26U C27G A49U C54A A66U C85A C116G | -3.74
A16C A26G C35A A52G C87U | -3.98
A16U A17G G59C U77G G94U | -3.85
A16G A49U C131U | -1.5
U15G G48A U53A A73G C85A | ≤ -4.2
A16C A49U C85U U146C | -2.7
U15G A22C U148G | ≤ -4.2
A16G A20C C35A U44A A47G C129U G140C | ≤ -4.2
A16U A60C U61A A66C | ≤ -4.2
A16U C18G A21G A22U C51U U53G G68A G81C | ≤ -4.2
A16G A40C | -0.456
A16U A21G A30U G48C | ≤ -4.2
A16G C43A U55A G80C G117U G133C | ≤ -4.2
A16G A28G G59A G80A G83C C87U | ≤ -4.2
A16C A26U | -2.62
A16G C18U C27U A28U A40C G50C U56A G84C C125A G143A U146G | ≤ -4.2
U15G U82C G94A | -1.01
A16C U56C C87U | -2.13

From the RNAGym collection of RNA variant scans (doi:10.1073/pnas.2313332121)
